The record followed here is EP4745153A1, “GLP-1, GIP AND GCG RECEPTOR […] USE THEREOF” (Jiangsu Hengrui Pharmaceuticals Co., Ltd., priority 2023, dated 2025).

Like-named read-outs stand apart in the source and are kept apart here. Starred links: 1 amine or outer side, 2 acyl side, 3 side chain; linkers in the order of their positions; H or OH if unused. Non-standard residues stand in square brackets, D forms with d. Residues, ends and D or L forms follow the SMILES beside them. Groups on a side chain read outwards from the residue. No end group written: not given here. *: point of attachment. C20 diacid = O=C(O)CCCCCCCCCCCCCCCCCCC(=O)*; γGlu = O=C(O)[C@H](CCC(=O)[*:2])N[*:1]; αMeL = CC(C)C[C@](C)(N)C(=O)O; αMeK = C[C@](N)(CCCCN)C(=O)O; αMeS = C[C@](N)(CO)C(=O)O; AEEA = NCCOCCOCC(=O)O; Aib = CC(C)(N)C(=O)O

The nature of data set [1]: Pharmacokinetics in mice after single intravenous injection. Details: species or system C57 mice. The conditions noted are these: mouse, in vivo, male C57 mice, single intravenous dose 200 nmol/kg, plasma. In short, it runs like this: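 Male C57 mice (~25 g, 4-6 weeks, n=3) received a single i.v. dose of 200 nmol/kg in 1×PBS. Plasma collected from 5 min to 72 h was methanol-precipitated with verapamil internal standard and quantified by LC-MS (ESI positive, MRM); PK parameters were calculated by PKSolver.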

Data set [2] is described as follows: Solubility in the vehicle. The format is physicochemical. The conditions noted are these: stated in the summary only, no test example.
For another data set, the target named is T1, human GIPR (Homo sapiens, UniProt P48546).
T1 construct: expressed in transfected cells; host or cells: CHO-K1 clonal cell line
T1 sequence (P48546 22-466): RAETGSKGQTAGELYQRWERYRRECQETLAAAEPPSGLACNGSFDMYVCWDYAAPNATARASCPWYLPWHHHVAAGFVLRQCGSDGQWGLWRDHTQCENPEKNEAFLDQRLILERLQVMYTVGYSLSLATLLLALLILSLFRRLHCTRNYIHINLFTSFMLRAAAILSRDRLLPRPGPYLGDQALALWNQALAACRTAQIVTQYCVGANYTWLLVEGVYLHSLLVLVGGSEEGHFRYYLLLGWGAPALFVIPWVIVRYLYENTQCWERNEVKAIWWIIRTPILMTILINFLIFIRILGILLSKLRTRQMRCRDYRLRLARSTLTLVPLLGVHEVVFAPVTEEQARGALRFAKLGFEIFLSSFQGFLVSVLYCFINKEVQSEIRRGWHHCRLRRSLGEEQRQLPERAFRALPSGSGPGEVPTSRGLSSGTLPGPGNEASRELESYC
Put plainly: cAMP HTRF agonist activity assay in CHO-K1 cells expressing GIPR. The format is cell-based. Summed up: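 Clonal CHO-K1 lines, 5000 cells/well, exposed to polypeptides for 30 min at 37°C. Intracellular cAMP read by HTRF (cAMP-d2 conjugate plus anti-cAMP-Eu cryptate in lysis buffer). Relative EC50 from four-parameter nonlinear fit of percent maximum response against concentration.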

Data set [3] addresses T2, human glucose-dependent insulinotropic polypeptide receptor (human, UniProt P48546 22-466).
T2 sequence (looked up): T1 sequence (P48546 22-466)
Put plainly: cell-based or functional assay.

Data set [4] deals with T3, human glucagon receptor (human, UniProt P47871 26-477). Nature of the data set: cell-based or functional assay.
For data set [5], the target named is human glucagon-like peptide-1 receptor (human, UniProt P43220 24-463). Nature of the data set: cell-based or functional assay.
Data set [6] deals with T2, human glucose-dependent insulinotropic …. Put plainly: cell-based or functional assay. The source holds these as a separate data set.
Data set [7] deals with T3, human glucagon receptor. Put plainly: cell-based or functional assay. This is another data set of the same source.

T3 sequence (P47871 26-477): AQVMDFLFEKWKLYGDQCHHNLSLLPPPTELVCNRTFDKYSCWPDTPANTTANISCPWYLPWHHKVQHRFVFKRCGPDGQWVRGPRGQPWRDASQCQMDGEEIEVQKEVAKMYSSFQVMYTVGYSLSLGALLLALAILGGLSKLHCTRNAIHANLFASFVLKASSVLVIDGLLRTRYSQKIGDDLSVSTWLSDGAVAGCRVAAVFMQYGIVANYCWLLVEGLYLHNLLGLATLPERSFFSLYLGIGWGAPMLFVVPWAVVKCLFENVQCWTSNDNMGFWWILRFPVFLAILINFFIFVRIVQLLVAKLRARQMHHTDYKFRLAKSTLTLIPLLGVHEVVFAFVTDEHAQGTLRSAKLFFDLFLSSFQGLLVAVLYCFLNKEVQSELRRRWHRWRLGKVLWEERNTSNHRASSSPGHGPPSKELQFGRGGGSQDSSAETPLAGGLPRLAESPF

Consider `CC[C@H](C)[C@H](NC(=O)[C@H](CC(C)C)NC(=O)[C@H](Cc1c[nH]c2ccccc12)NC(=O)[C@H](CCC(=O)O)NC(=O)[C@@H](NC(=O)[C@H](Cc1ccccc1)NC(=O)[C@H](CCC(=O)O)NC(=O)[C@](C)(CO)NC(=O)[C@H](C)NC(=O)[C@H](C)NC(=O)[C@H](CCCCN)NC(=O)[C@H](CCCCNC(=O)COCCOCCNC(=O)COCCOCCNC(=O)CC[C@H](NC(=O)CCCCCCCCCCCCCCCCCCC(=O)O)C(=O)O)NC(=O)[C@H](CCC(=O)O)NC(=O)[C@H](CC(C)C)NC(=O)[C@H](CC(C)C)NC(=O)[C@](C)(CCCCN)NC(=O)[C@H](CO)NC(=O)[C@H](Cc1ccc(O)cc1)NC(=O)[C@H](CC(=O)O)NC(=O)[C@H](CO)NC(=O)[C@@H](NC(=O)[C@H](Cc1ccccc1)NC(=O)[C@@H](NC(=O)CNC(=O)[C@H](Cc1c[nH]cn1)NC(=O)C(C)(C)NC(=O)[C@@H](N)Cc1c[nH]cn1)[C@@H](C)O)[C@@H](C)O)C(C)C)C(=O)N[C@@H](CCC(=O)O)C(=O)NCC(=O)NCC(=O)N1CCC[C@H]1C(=O)N[C@@H](CO)C(=O)N[C@@H](CO)C(=O)NCC(=O)N[C@@H](C)C(=O)N1CCC[C@H]1C(=O)N1CCC[C@H]1C(=O)N1CCC[C@H]1C(=O)N[C@@H](CO)C(N)=O` [Compound 0126] (H-H[Aib]HGTFTSDYS[αMeK]LLEK([AEEA-AEEA-γGlu-C20 diacid])KAA[αMeS]EFVEWLIEGGPSSGAPPPS-NH2), for which, in data set [1], the AUC(0-inf) came to 103 µM·h and the C0 came out at 7.17 µM. The clearance in data set [1] (read-out: CLp) was 1.98 mL/h/kg. The half-life in data set [1] (read-out: T1/2 (converted)) is 10.1 h. Further, the “solubility in the vehicle” value in data set [2] is reported as at least 20 mg/mL. On human GIPR, this molecule displayed an EC50 of 0.002 nM.

B1: Compound No. 0119 (peptide)
peptide: H[Aib]HGTFTSDYS[αMeK]ILEK([AEEA-AEEA-γGlu-C20 diacid])KAAQEFVEWLLAGGPSSGAPPPS-NH2
modifications: N-terminus assumed
SMILES: CC[C@H](C)[C@H](NC(=O)[C@](C)(CCCCN)NC(=O)[C@H](CO)NC(=O)[C@H](Cc1ccc(O)cc1)NC(=O)[C@H](CC(=O)O)NC(=O)[C@H](CO)NC(=O)[C@@H](NC(=O)[C@H](Cc1ccccc1)NC(=O)[C@@H](NC(=O)CNC(=O)[C@H](Cc1c[nH]cn1)NC(=O)C(C)(C)NC(=O)[C@@H](N)Cc1c[nH]cn1)[C@@H](C)O)[C@@H](C)O)C(=O)N[C@@H](CC(C)C)C(=O)N[C@@H](CCC(=O)O)C(=O)N[C@@H](CCCCNC(=O)COCCOCCNC(=O)COCCOCCNC(=O)CC[C@H](NC(=O)CCCCCCCCCCCCCCCCCCC(=O)O)C(=O)O)C(=O)N[C@@H](CCCCN)C(=O)N[C@@H](C)C(=O)N[C@@H](C)C(=O)N[C@@H](CCC(N)=O)C(=O)N[C@@H](CCC(=O)O)C(=O)N[C@@H](Cc1ccccc1)C(=O)N[C@H](C(=O)N[C@@H](CCC(=O)O)C(=O)N[C@@H](Cc1c[nH]c2ccccc12)C(=O)N[C@@H](CC(C)C)C(=O)N[C@@H](CC(C)C)C(=O)N[C@@H](C)C(=O)NCC(=O)NCC(=O)N1CCC[C@H]1C(=O)N[C@@H](CO)C(=O)N[C@@H](CO)C(=O)NCC(=O)N[C@@H](C)C(=O)N1CCC[C@H]1C(=O)N1CCC[C@H]1C(=O)N1CCC[C@H]1C(=O)N[C@@H](CO)C(N)=O)C(C)C
For the molecule B1, the “Activity against human GIPR (EC50 nM)” value in data set [3] was determined as 0.005 nM. In the data set with human glucagon receptor [4], the “Activity against human GCGR (EC50 nM)” value came to 0.087 nM. The “Activity against human GLP-1R (EC50 nM)” value in data set [5] worked out at 0.023 nM.

B2: Compound No. 0125 (peptide)
peptide: H[Aib]HGTFTSDYSI[αMeL]LEK([AEEA-AEEA-γGlu-C20 diacid])KAAQEFVEWLLAGGPSSGAPPPS-NH2
modifications: N-terminus assumed
SMILES: CC[C@H](C)[C@H](NC(=O)[C@H](CO)NC(=O)[C@H](Cc1ccc(O)cc1)NC(=O)[C@H](CC(=O)O)NC(=O)[C@H](CO)NC(=O)[C@@H](NC(=O)[C@H](Cc1ccccc1)NC(=O)[C@@H](NC(=O)CNC(=O)[C@H](Cc1c[nH]cn1)NC(=O)C(C)(C)NC(=O)[C@@H](N)Cc1c[nH]cn1)[C@@H](C)O)[C@@H](C)O)C(=O)N[C@@](C)(CC(C)C)C(=O)N[C@@H](CC(C)C)C(=O)N[C@@H](CCC(=O)O)C(=O)N[C@@H](CCCCNC(=O)COCCOCCNC(=O)COCCOCCNC(=O)CC[C@H](NC(=O)CCCCCCCCCCCCCCCCCCC(=O)O)C(=O)O)C(=O)N[C@@H](CCCCN)C(=O)N[C@@H](C)C(=O)N[C@@H](C)C(=O)N[C@@H](CCC(N)=O)C(=O)N[C@@H](CCC(=O)O)C(=O)N[C@@H](Cc1ccccc1)C(=O)N[C@H](C(=O)N[C@@H](CCC(=O)O)C(=O)N[C@@H](Cc1c[nH]c2ccccc12)C(=O)N[C@@H](CC(C)C)C(=O)N[C@@H](CC(C)C)C(=O)N[C@@H](C)C(=O)NCC(=O)NCC(=O)N1CCC[C@H]1C(=O)N[C@@H](CO)C(=O)N[C@@H](CO)C(=O)NCC(=O)N[C@@H](C)C(=O)N1CCC[C@H]1C(=O)N1CCC[C@H]1C(=O)N1CCC[C@H]1C(=O)N[C@@H](CO)C(N)=O)C(C)C
Consider B2, for which the “Activity against human GIPR (EC50 nM)” value in data set [6] was 0.002 nM. Moreover, the “Activity against human GCGR (EC50 nM)” value with human glucagon receptor [7] stood at 0.071 nM.

B3: Compound No. 0120 (peptide)
peptide: H[Aib]HGTFTSDYSILLEK([AEEA-AEEA-γGlu-C20 diacid])KAAQEFVEWLLAGGPSSGAPPPS-NH2
modifications: N-terminus assumed
SMILES: CC[C@H](C)[C@H](NC(=O)[C@H](CO)NC(=O)[C@H](Cc1ccc(O)cc1)NC(=O)[C@H](CC(=O)O)NC(=O)[C@H](CO)NC(=O)[C@@H](NC(=O)[C@H](Cc1ccccc1)NC(=O)[C@@H](NC(=O)CNC(=O)[C@H](Cc1c[nH]cn1)NC(=O)C(C)(C)NC(=O)[C@@H](N)Cc1c[nH]cn1)[C@@H](C)O)[C@@H](C)O)C(=O)N[C@@H](CC(C)C)C(=O)N[C@@H](CC(C)C)C(=O)N[C@@H](CCC(=O)O)C(=O)N[C@@H](CCCCNC(=O)COCCOCCNC(=O)COCCOCCNC(=O)CC[C@H](NC(=O)CCCCCCCCCCCCCCCCCCC(=O)O)C(=O)O)C(=O)N[C@@H](CCCCN)C(=O)N[C@@H](C)C(=O)N[C@@H](C)C(=O)N[C@@H](CCC(N)=O)C(=O)N[C@@H](CCC(=O)O)C(=O)N[C@@H](Cc1ccccc1)C(=O)N[C@H](C(=O)N[C@@H](CCC(=O)O)C(=O)N[C@@H](Cc1c[nH]c2ccccc12)C(=O)N[C@@H](CC(C)C)C(=O)N[C@@H](CC(C)C)C(=O)N[C@@H](C)C(=O)NCC(=O)NCC(=O)N1CCC[C@H]1C(=O)N[C@@H](CO)C(=O)N[C@@H](CO)C(=O)NCC(=O)N[C@@H](C)C(=O)N1CCC[C@H]1C(=O)N1CCC[C@H]1C(=O)N1CCC[C@H]1C(=O)N[C@@H](CO)C(N)=O)C(C)C
With B3, the “Activity against human GIPR (EC50 nM)” value in data set [3] was determined as 0.002 nM. Also, the “Activity against human GCGR (EC50 nM)” value with human glucagon receptor [4] worked out at 0.121 nM. In data set [5], the “Activity against human GLP-1R (EC50 nM)” value was determined as 0.026 nM.

By AUC(0-inf) is commonly meant total exposure, with the tail of the curve extrapolated. A lower AUC(0-inf) goes with low exposure. As a reminder, the EC50 is the concentration at which the effect is half-maximal.
